As usually defined, the Kd is the equilibrium constant for the complex coming apart.

The target in the test is T1, ADAMTSL2 (a disintegrin and metalloproteinase with thrombospondin motifs-like 2), recombinant (human, UniProt Q86TH1 23-951).
T1 construct: ADAMTSL2, secreted glycoprotein; source: recombinant, purified as described previously (Koo et al., 2007)
T1 sequence (looked up): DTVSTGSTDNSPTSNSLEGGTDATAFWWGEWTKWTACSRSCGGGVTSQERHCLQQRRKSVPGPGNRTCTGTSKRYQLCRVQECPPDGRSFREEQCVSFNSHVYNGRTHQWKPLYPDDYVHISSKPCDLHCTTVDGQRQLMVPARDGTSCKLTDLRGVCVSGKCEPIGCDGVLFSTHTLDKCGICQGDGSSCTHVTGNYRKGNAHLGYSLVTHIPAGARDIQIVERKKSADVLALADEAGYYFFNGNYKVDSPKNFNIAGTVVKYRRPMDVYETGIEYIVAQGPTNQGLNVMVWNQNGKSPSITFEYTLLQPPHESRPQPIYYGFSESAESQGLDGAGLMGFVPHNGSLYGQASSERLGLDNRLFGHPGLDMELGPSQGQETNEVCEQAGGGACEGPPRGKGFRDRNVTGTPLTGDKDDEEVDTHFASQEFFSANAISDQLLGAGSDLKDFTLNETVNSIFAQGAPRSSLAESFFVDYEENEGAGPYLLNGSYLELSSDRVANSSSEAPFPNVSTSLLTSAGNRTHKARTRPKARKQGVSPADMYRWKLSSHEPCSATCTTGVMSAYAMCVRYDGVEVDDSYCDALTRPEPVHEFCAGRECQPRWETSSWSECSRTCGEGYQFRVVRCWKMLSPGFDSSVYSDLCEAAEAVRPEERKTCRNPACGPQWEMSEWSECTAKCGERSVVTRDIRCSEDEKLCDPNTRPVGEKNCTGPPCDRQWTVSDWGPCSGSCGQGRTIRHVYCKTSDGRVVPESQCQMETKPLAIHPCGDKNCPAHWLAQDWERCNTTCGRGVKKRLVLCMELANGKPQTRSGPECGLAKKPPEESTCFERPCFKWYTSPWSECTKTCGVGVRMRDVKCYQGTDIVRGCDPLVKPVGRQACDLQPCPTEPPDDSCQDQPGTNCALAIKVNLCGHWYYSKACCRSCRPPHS
Nature of the test: SPR; ADAMTSL2 immobilised by amine coupling on a CM5 chip (about 1500 RU), fibrillin fragments injected; BIAcore 3000; 25°C; 10 mM HEPES pH 7.4, 150 mM NaCl, 2 mM CaCl2, 0.005% surfactant P20; 20 ul/min; n=2. To be noted: both partners purified. For orientation: Surface plasmon resonance follows binding to a sensor surface in real time, without labels.

B1: N-terminal half of fibrillin-1 (FBN1), recombinant fragment (domain or fragment)
chain: not shown
Take B1: the dissociation constant (Kd) came to 14.3 nM.

B2: C-terminal half of fibrillin-1 (FBN1), recombinant fragment (domain or fragment)
chain: not shown
As to B2, the Kd turned out to be 8 nM.

For the origin of these results see publication PMC4415891, “Adamtsl2 deletion results in bronchial fibrillin microfibril accumulation and bronchial epithelial dysplasia – a novel mouse model providing insights into geleophysic dysplasia” (Disease Models & Mechanisms, 2015).
